Test results taken from the supplement of paper PMC7877785.
± gives the uncertainty stated by the source.

Assay: self-splicing fitness, log relative to wild type (ln ratio); higher = more splicing; Tetrahymena group I intron in knt gene, E. coli kanamycin selection, DiMSum; sequences stand for … in CUCUCU…GGAGGGAAAAGUUAUCAGGCAUGCACCUGGUAGCUAGUCUUUAAACCAAUAGAUUGCAUCGGUUUAAAAGGCAAGACCGUCAAAUUGCGGGAAAGGGGUCAACAGCCGUUCAGUACCAAGUCUCAGGGGAAACUUUGAGAUGGCCUUGCAAAGGGUAUGGUAAUAAGCUGACGGACAUGGUCCUAACCACGCAGCCAAGUCCUAAGUCAACAGAUCUUCUGUUGAUAUGGAUGCAGUUCACAGACUAAAUGUCGGUCGGGGAAGAUGUAUUCUUCUCAUAAGAUAUAGUCGGACCUCUCCUUAAUGGGAGCUAGCGGAUGAAGUGAUGCAACACUGGAGCCGCUGGGAACUAAUUUGUAUGCGAAAGUAUAUUGAUUAGUUUUGGAGUACUCGUGGUCG
Summary of the method: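 Pooled colonies went to amplicon sequencing on an Illumina HiSeq 2500 after six replicate transformations. The plates were LB agar with 100 μg/mL carbenicillin, 50 μM IPTG and 0.2% rhamnose, with or without 25 μg/mL kanamycin, incubated overnight at 37°C or 30°C. The E. coli BL21(DE3) library had all eight P1ex-region intron nucleotides randomised, the intron placed in the knt kanamycin-resistance gene on pET-22b(+). DiMSum fitness is the error-weighted combination of replicate fold changes, kanamycin against none, normalised to wild type.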

Sequence | self-splicing fitness (ln) (30 °C) | self-splicing fitness (ln) (37 °C)
UUCGAGCAAUAUUACGUUCA | -1.99 ± 0.13 | -1.15 ± 0.13
CGCGAGCAAUAUUACGCUAA | -2.95 ± 0.27 | -2.55 ± 0.28
UGUGAGCAAUAUUACGCGCG | -1.13 ± 0.43 | 
UAAGAGCAAUAUUACGUUAA | -3.21 ± 0.22 | -2.3 ± 0.2
UAGAAGCAAUAUUACGAAAU | -3.48 ± 0.24 | -1.95 ± 0.21
ACAUAGCAAUAUUACGGUAU | -3.6 ± 0.11 | -1.77 ± 0.11
AUCCAGCAAUAUUACGAAGC | -2.53 ± 0.16 | -2.28 ± 0.23
GUGGAGCAAUAUUACGCCCU | -1.79 ± 0.32 | -1.87 ± 0.26
CAUUAGCAAUAUUACGUCCU | -3.14 ± 0.18 | -1.38 ± 0.15
CACCAGCAAUAUUACGUGCU | -3.4 ± 0.11 | -2.7 ± 0.15
UUGAAGCAAUAUUACGUUGG | -1.18 ± 0.089 | -0.305 ± 0.15
UCGUAGCAAUAUUACGGUCU | -2.83 ± 0.18 | -1.67 ± 0.16
GCUUAGCAAUAUUACGUAUG | -1.6 ± 0.18 | -1.17 ± 0.2
CUAGAGCAAUAUUACGGAAG | -0.402 ± 0.07 | -0.264 ± 0.1
UUCAAGCAAUAUUACGUUCC |  | -1.79 ± 0.34
GGAAAGCAAUAUUACGUCCU | -3.68 ± 0.21 | -1.14 ± 0.14
AACAAGCAAUAUUACGACGG | -2.3 ± 0.14 | -1.93 ± 0.12
GUAUAGCAAUAUUACGCAUU | -2 ± 0.17 | -2.28 ± 0.29
UCAUAGCAAUAUUACGCCGG | -1.25 ± 0.12 | -0.72 ± 0.12
AUUUAGCAAUAUUACGGAAC | -3.03 ± 0.3 | -2.02 ± 0.31
CACAAGCAAUAUUACGUGAG | -4.48 ± 0.15 | -3.21 ± 0.19
ACUCAGCAAUAUUACGAGGU | -3.47 ± 0.18 | -1.68 ± 0.17
AGGUAGCAAUAUUACGCUCA | -0.609 ± 0.017 | -0.196 ± 0.035
UAUGAGCAAUAUUACGACAU | -3.523 ± 0.029 | -2.56 ± 0.042
GUUCAGCAAUAUUACGUAUC | -0.532 ± 0.089 | -0.756 ± 0.1

Sequence | self-splicing fitness (ln) (30 °C) | self-splicing fitness (ln) (37 °C)
AGAGAGCAAUAUUACGUGCA | -3.36 ± 0.26 | -2.34 ± 0.24
UCGCAGCAAUAUUACGUAUC | -3.82 ± 0.37 | -2.15 ± 0.27
CUGUAGCAAUAUUACGACUA | -1.74 ± 0.42 | -0.817 ± 0.3
GCCGAGCAAUAUUACGCGUG | -2.05 ± 0.088 | -1.32 ± 0.091
GAACAGCAAUAUUACGCCGC |  | -2.35 ± 0.34
CAUAAGCAAUAUUACGACCU | -2.63 ± 0.28 | -1.62 ± 0.33
UGCAAGCAAUAUUACGUCCC | -1.37 ± 0.28 | -0.65 ± 0.24
GGUGAGCAAUAUUACGAGUG | -2.19 ± 0.41 | -2.55 ± 0.27
CGCGAGCAAUAUUACGCUUG | -3.06 ± 0.2 | -1.46 ± 0.22
GCGGAGCAAUAUUACGCAUA | -2.55 ± 0.49 | -2.74 ± 0.36
ACGUAGCAAUAUUACGCAGA | -3.08 ± 0.27 | -2.48 ± 0.18
AGAAAGCAAUAUUACGACCC | 0.302 ± 0.21 | -0.444 ± 0.27
GCCUAGCAAUAUUACGGGGU | -3.83 ± 0.19 | -2.19 ± 0.19
CCGCAGCAAUAUUACGUCUC | -3.13 ± 0.24 | -2.56 ± 0.26
CCGUAGCAAUAUUACGAUGG | -3.58 ± 0.2 | -3.38 ± 0.26
UGGGAGCAAUAUUACGGAGG | -3.43 ± 0.36 | 
UAGCAGCAAUAUUACGCUCG | -1 ± 0.12 | 0.142 ± 0.14
ACUAAGCAAUAUUACGGGAC | -2.94 ± 0.14 | -0.635 ± 0.12
AAACAGCAAUAUUACGAAAA | -2.95 ± 0.15 | -1.8 ± 0.14
ACCAAGCAAUAUUACGACGC | -0.493 ± 0.074 | 0.0307 ± 0.098
UGAAAGCAAUAUUACGUGUC | -0.712 ± 0.15 | -2.32 ± 0.21
AAUCAGCAAUAUUACGGCCU | 0.091 ± 0.13 | 0.245 ± 0.15
CAGUAGCAAUAUUACGUAGC | -3.32 ± 0.12 | -3.18 ± 0.17
GUGGAGCAAUAUUACGUCGG | -3.08 ± 0.22 | -2.35 ± 0.2
GAGGAGCAAUAUUACGCUAA | -1.86 ± 0.32 | 

Sequence | self-splicing fitness (ln) (30 °C) | self-splicing fitness (ln) (37 °C)
CGGGAGCAAUAUUACGCAGC | -3.21 ± 0.24 | -2.72 ± 0.43
UAGGAGCAAUAUUACGUUAG | -3.8 ± 0.3 | -2.71 ± 0.49
UAAUAGCAAUAUUACGGUCA | -0.412 ± 0.11 | -0.333 ± 0.11
UAUCAGCAAUAUUACGGCAA | -0.306 ± 0.12 | 0.808 ± 0.15
CAGCAGCAAUAUUACGUUGG | -1.91 ± 0.072 | -0.788 ± 0.084
UAUGAGCAAUAUUACGCGUG | -1.88 ± 0.12 | -1.04 ± 0.11
UGUAAGCAAUAUUACGAGCG | 0.195 ± 0.1 | 0.758 ± 0.14
UCAUAGCAAUAUUACGGCCA |  | -0.442 ± 0.46
GGGGAGCAAUAUUACGUAUC | -2.03 ± 0.2 | -2.19 ± 0.37
ACCAAGCAAUAUUACGCCUA | -1.04 ± 0.11 | -0.201 ± 0.11
GCUCAGCAAUAUUACGCAGC | -2.98 ± 0.35 | -2.67 ± 0.44
UGCGAGCAAUAUUACGUAUU | -3.07 ± 0.17 | -2.58 ± 0.2
CGCCAGCAAUAUUACGGCGG | -2.23 ± 0.13 | -1.83 ± 0.17
AUAAAGCAAUAUUACGACGU | 0.742 ± 0.063 | 0.786 ± 0.074
UGUGAGCAAUAUUACGGCGC | -1.23 ± 0.33 | 
UUAGAGCAAUAUUACGAAUG | -2.2 ± 0.14 | -2.55 ± 0.26
GAUGAGCAAUAUUACGCCAU | -2.56 ± 0.14 | 
AGGUAGCAAUAUUACGACAG | -1.6 ± 0.017 | -0.956 ± 0.034
AUUCAGCAAUAUUACGGGCA | -1.47 ± 0.14 | -0.16 ± 0.14
GACAAGCAAUAUUACGAGCA | -1.12 ± 0.093 | -0.355 ± 0.092
AGCUAGCAAUAUUACGGGAG | -1.59 ± 0.13 | -2.54 ± 0.19
AACAAGCAAUAUUACGUUUU | -3.22 ± 0.08 | -1.03 ± 0.067
GCUUAGCAAUAUUACGGCAC | -2.62 ± 0.44 | 0.326 ± 0.28
CAGGAGCAAUAUUACGUACU |  | -2.97 ± 0.38
GCCUAGCAAUAUUACGACUA |  | -1.93 ± 0.38

Sequence | self-splicing fitness (ln) (30 °C) | self-splicing fitness (ln) (37 °C)
GGGGAGCAAUAUUACGCCUU |  | -0.939 ± 0.35
AAUCAGCAAUAUUACGACGU | 0.0618 ± 0.056 | 0.666 ± 0.07
ACCAAGCAAUAUUACGUUUU | -3.36 ± 0.1 | -2.29 ± 0.096
CGUCAGCAAUAUUACGGCAC | -1.8 ± 0.12 | -0.799 ± 0.14
CUAUAGCAAUAUUACGUUGG | -3.71 ± 0.16 | -2.79 ± 0.17
CGAGAGCAAUAUUACGAAAG | -3.64 ± 0.4 | -1.55 ± 0.31
AUCAAGCAAUAUUACGAAAC | -3.16 ± 0.2 | -3.17 ± 0.28
UCCCAGCAAUAUUACGCGGA | -2.72 ± 0.17 | -1.12 ± 0.12
GUCUAGCAAUAUUACGCACC | -1.81 ± 0.11 | -0.328 ± 0.14
UAUGAGCAAUAUUACGGUCU | -2.78 ± 0.28 | -2.96 ± 0.4
CCAAAGCAAUAUUACGGGAA | -3.01 ± 0.18 | -3.66 ± 0.3
AUGCAGCAAUAUUACGCAGC |  | -1.91 ± 0.46
UGGUAGCAAUAUUACGUAUG | -1.66 ± 0.13 | -1.18 ± 0.13
GAGUAGCAAUAUUACGUCGC | -1.31 ± 0.22 | -1.42 ± 0.26
AGGCAGCAAUAUUACGAAAC | -3.58 ± 0.22 | -1.8 ± 0.19
CCCGAGCAAUAUUACGAUCC | -2.76 ± 0.24 | -2.71 ± 0.27
UCAAAGCAAUAUUACGUACA | -1.2 ± 0.14 | -0.562 ± 0.16
CUAGAGCAAUAUUACGGCAG | 0.0667 ± 0.08 | 0.49 ± 0.11
GAGCAGCAAUAUUACGGCGU | -0.163 ± 0.14 | 0.683 ± 0.18
CUUUAGCAAUAUUACGGUCG | -0.496 ± 0.055 | -0.259 ± 0.083
UGAUAGCAAUAUUACGAUGU |  | -2.04 ± 0.34
GACUAGCAAUAUUACGAUAC | -1.31 ± 0.07 | -0.489 ± 0.092
CUGCAGCAAUAUUACGAUAU | -3.64 ± 0.28 | -2.41 ± 0.3
UCCGAGCAAUAUUACGUCGC | -3.15 ± 0.28 | -1.24 ± 0.3
